The target in the experiment is T1, human PD-L1 (programmed death-ligand 1), soluble protein (human, UniProt Q9NZQ7 19-238, limits assumed).
T1 construct: also called 人PD-L1; CD274
Kind of experiment: ELISA, PD-L1 coated on plate, HRP anti-human IgG detection. Background: In an ELISA, binding on a coated surface is turned into a signal by an enzyme label.

Broadly, the EC50 is the concentration needed to bring the measured effect to its halfway point. A low value points to higher potency in that assay.

Where a chain is given by its changes, count along the chain named.

T1 sequence (Q9NZQ7 19-238 limits assumed): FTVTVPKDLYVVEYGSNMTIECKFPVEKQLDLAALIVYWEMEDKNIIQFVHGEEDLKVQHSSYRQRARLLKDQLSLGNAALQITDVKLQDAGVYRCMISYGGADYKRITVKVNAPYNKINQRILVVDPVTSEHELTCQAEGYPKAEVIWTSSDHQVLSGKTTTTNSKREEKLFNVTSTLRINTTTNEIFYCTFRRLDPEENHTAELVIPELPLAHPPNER

B1: JS003 (humanized anti-PD-L1 antibody, clone 30) (antibody, human IgG4 S228P, kappa, V domains shown)
VH: QGQLQESGPSLVKPSQTLSLTCTVSGDSITRGYWNWIRKHPGKGLEYIGYISYTGSTYSNLSLKSRVTISRDTSKNQYYLKLSSVTAADTAVYYCATSTGWLDPVDYWGQGTLVTVSS
VL: DIVMTQSPDSLAVSLGERATINCKASQNVDTSVAWFQQKPGQPPKALIYSASFRYSGVPDRFSGSGSGTDFTLTISSLQAEDVAVYFCQQYYGYPFTFGQGTKLEIKR
notes: Full humanized antibody; Tested from formulation no; 30; also called 人源化抗体30; 抗体30
Take B1: the EC50 stood at 0.558 ng/mL.

B2: humanized anti-PD-L1 antibody 38 (clone 38) (antibody, V domains shown)
VH: B1 VH with H40P
VL: DIQMTQSPSSLSASVGDRVTITCRASQNVDTSVAWFQQKPGKAPKALIYSASFRYSGVPSRFSGSGSGTDFTLTISSLQPEDFATYFCQQYYGYPFTFGQGTKLEIK
B2 yielded an EC50 of 0.837 ng/mL. The EC50 values of the last two molecules are within 1.5-fold of each other.

The values above are taken from patent CN112741804A (SHANGHAI JUNSHI BIOSCIENCES CO LTD; JUNMENG BIOSCIENCES CO …, dated 2021).
